The test deals with His6-MS2 coat protein (bacteriophage MS2) (UniProt P03612). As to the kind of experiment: SEC; Superose 6 (10/300 GL); supernatants of crude cell extracts of E. coli JM101 expression cultures; 50 mM Tris-HCl pH 7.5, 300 mM NaCl; with or without benzonase treatment; reference proteins 669, 400 and 29 kDa.

Broadly, the stoichiometry N is a count of units in the complex or per binding partner.

On to “His6-MS2 coat protein (from UniProt P03612 1-130) (natural protein)”, for which the stoichiometry N was 2.

The values above are taken from article PMC3753655.
